T1: ATX1 AXH (residues A567-K689 of human ATX1) (human)
T1 chain: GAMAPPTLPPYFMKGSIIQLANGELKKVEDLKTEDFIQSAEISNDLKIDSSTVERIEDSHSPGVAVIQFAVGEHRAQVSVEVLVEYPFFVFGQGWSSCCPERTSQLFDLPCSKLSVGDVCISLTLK


What was measured:
[1] = target: ATX1 AXH (residues A567-K689 of human ATX1) (human); experiment: NMR relaxation (T1, T2, rotational correlation time); free AXH, before addition of the peptide; 27°C, 600 MHz
[2] = target: ATX1 AXH (residues A567-K689 of human ATX1) (human); experiment: ITC; 0.041 mM AXH in the cell, 0.410 mM peptide in the syringe, 21 aliquots; 25°C; 50 mM Tris-HCl pH 7, 50 mM NaCl, 2 mM TCEP; single-site model; averages of three measurements
Target sequence in this assay (P54253 567-689): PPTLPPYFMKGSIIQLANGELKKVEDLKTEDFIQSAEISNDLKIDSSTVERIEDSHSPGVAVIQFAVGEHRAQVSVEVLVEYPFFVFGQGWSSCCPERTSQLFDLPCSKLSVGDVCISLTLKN

[3] = target: T1, ATX1 AXH (residues A567-K689 of human …); experiment: ITC

Molecule | stoichiometry N [1] | fold change of Kd against wild-type L-CICp [2] | Kd [3] | Kd [2]
VFPWHSAVPFLAPSQ [L-CICp with L40 mutated to alanine] |  | 10 fold | 500 nM | 
PWHSLVPFLAPSQ [CICp] |  |  |  | 8000 nM

Continued, values first:

stoichiometry N [1] | fold change of Kd against wild-type L-CICp [2] | Kd [3] | Kd [2] | Molecule
2 |  |  |  | ATX1 AXH (residues A567-K689 of human ATX1) (domain or fragment)
 | 100 fold | 2600 nM |  | VFPAHSLVPFLAPSQ [L-CICp with W37 mutated to alanine]
 |  | 30 nM | 33 nM | VFPWHSLVPFLAPSQ [L-CICp]

Reference: publication PMC3796545, “Protein-Protein Interactions as a Strategy towards Protein-Specific Drug Design: The Example of Ataxin-1” (PLoS ONE, 2013)
